# From patent US20230235058A1 (OXFORD UNIVERSITY INNOVATION, published 2023)
# Key:
# Experiment in all cases: flow cytometry, GFP-positive transfected HEK-293T cells, fluorochrome-conjugated antibody at 10 ug/ml, Geo-mean relative to wild type;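 also: cells express mutant human BTLA ectodomain fused to murine CD28 transmembrane and cytoplasmic parts, stained 48 h after transfection for 1 h at 4 °C alongside a Live/Dead dye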
# E103R = molecular target: T1, E103R (Mus musculus)
# T1 construct: transmembrane and intracellular regions; also called BTLA E103R construct
# Experimental: (§1) Constructs encoding the human extracellular region of BTLA with the transmembrane and intracellular regions of murine CD28 were cloned into the bi-cistronic mammalian expression vector pGFP2-n2 (BioSignal Packard Ltd), which also encodes GFP. […] Mock and no-transfection controls were included with each experiment. Cells were harvested at 48 hours and stained with fluorochrome-conjugated anti-BTLA antibody at 10 μg/ml, alongside a Live/Dead marker, in PBS, 0.05% azide, 2% FCS (FACS buffer) for 1 h at 4° C. Cells were washed, pelleted and resuspended in 200 μl FACS buffer before being analysed on a BD FACSCanto flow cytometer. […] For each mutant the Geo-mean of anti-BTLA antibody binding to transfected cells was expressed as a percentage of binding to the wild-type receptor (FIG. 3b). A panel of anti-BTLA antibodies was assessed and any mutation that eliminated binding of all antibodies was excluded from the analysis, on the assumption that such mutations lead to drastic changes in protein folding or expression rather than indicating an antibody epitope.
# S121R = molecular target: T2, S121R (Mus musculus)
# T2 construct: transmembrane and intracellular regions; also called BTLA S121R construct
# Experimental: as §1
# E57R = molecular target: T3, E57R (Mus musculus)
# T3 construct: transmembrane and intracellular regions; also called BTLA E57R construct
# Experimental: as §1
# N108R = molecular target: T4, N108R (Mus musculus)
# T4 construct: transmembrane and intracellular regions; also called BTLA N108R construct
# Experimental: as §1
# S47R = molecular target: T5, S47R (Mus musculus)
# T5 construct: transmembrane and intracellular regions; also called BTLA S47R construct
# Experimental: as §1
# Q43R = molecular target: T6, Q43R (Mus musculus)
# T6 construct: transmembrane and intracellular regions; also called BTLA Q43R construct
# Experimental: as §1
# Y132R = molecular target: T7, Y132R (Mus musculus)
# T7 construct: transmembrane and intracellular regions; also called BTLA Y132R construct
# Experimental: as §1
# T78R = molecular target: T8, T78R (Mus musculus)
# T8 construct: transmembrane and intracellular regions; also called BTLA T78R construct
# Experimental: as §1
# D35R = molecular target: T9, D35R (Mus musculus)
# T9 construct: transmembrane and intracellular regions; also called BTLA D35R construct
# Experimental: as §1
# E45R = molecular target: T10, E45R (Mus musculus)
# T10 construct: transmembrane and intracellular regions; also called BTLA E45R construct
# Experimental: as §1
# P53R = molecular target: T11, P53R (Mus musculus)
# T11 construct: transmembrane and intracellular regions; also called BTLA P53R construct
# T11 sequence (Q7Z6A9 31-151 P53R): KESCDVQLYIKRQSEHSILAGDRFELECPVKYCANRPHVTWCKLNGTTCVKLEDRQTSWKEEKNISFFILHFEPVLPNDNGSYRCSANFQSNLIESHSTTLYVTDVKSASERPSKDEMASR
# Experimental: as §1
# T8 sequence (Q7Z6A9 31-151 T78R): as the sequence (Q7Z6A9 31-151 P53R) above, with R23P, T48R counted along it
# T4 sequence (Q7Z6A9 31-151 N108R): as the sequence (Q7Z6A9 31-151 P53R) above, with R23P, N78R counted along it
# T3 sequence (Q7Z6A9 31-151 E57R): as the sequence (Q7Z6A9 31-151 P53R) above, with R23P, E27R counted along it
# T5 sequence (Q7Z6A9 31-151 S47R): as the sequence (Q7Z6A9 31-151 P53R) above, with S17R, R23P counted along it
# T1 sequence (Q7Z6A9 31-151 E103R): as the sequence (Q7Z6A9 31-151 P53R) above, with R23P, E73R counted along it
# T2 sequence (Q7Z6A9 31-151 S121R): as the sequence (Q7Z6A9 31-151 P53R) above, with R23P, S91R counted along it
# T7 sequence (Q7Z6A9 31-151 Y132R): as the sequence (Q7Z6A9 31-151 P53R) above, with R23P, Y102R counted along it
# T6 sequence (Q7Z6A9 31-151 Q43R): as the sequence (Q7Z6A9 31-151 P53R) above, with Q13R, R23P counted along it
# T10 sequence (Q7Z6A9 31-151 E45R): as the sequence (Q7Z6A9 31-151 P53R) above, with E15R, R23P counted along it
# T9 sequence (Q7Z6A9 31-151 D35R): as the sequence (Q7Z6A9 31-151 P53R) above, with D5R, R23P counted along it
Binder,binding as % of binding to wild-type BTLA (E103R),binding as % of binding to wild-type BTLA (S121R),binding as % of binding to wild-type BTLA (E57R),binding as % of binding to wild-type BTLA (N108R),binding as % of binding to wild-type BTLA (S47R),binding as % of binding to wild-type BTLA (Q43R),binding as % of binding to wild-type BTLA (Y132R),binding as % of binding to wild-type BTLA (T78R),binding as % of binding to wild-type BTLA (D35R),binding as % of binding to wild-type BTLA (E45R),binding as % of binding to wild-type BTLA (P53R)
"2.8.6 (antibody, V domains shown, mouse IgG1k hybridoma antibody; also called clone 2.8.6) VH: QVQLKESGPGLVAPSQSLSITCTVSGFSLTTYGVHWVRQSPGKGLEWLGVMWPGGRTSYNPAPMSRLSISKDNSKSQVFLKMNSLQTDDTAMYYCVRGDYEYDYYAMDYWGQGTSVTVSS VL: QIVLSQSPAILSASPGEKVTMTCRASSSVSYMHWYQQKPGSSPKPWIYATSNLASGVPARFSGSGSGTSYSLTISRMEAEDAATYYCHQWSSNPYTFGGGTKLEIK",79%,67.9%,76.3%,107%,99.7%,87.9%,68.2%,95.3%,83.7%,96.3%,55.6%
"11.5.1 (antibody, V domains shown, mouse IgG1k hybridoma antibody) VH: EVQLQESGPSLVKPSQTLSLTCSVTGDSITSAYWNWIRKFPGNKLEYMGYISYSGSTYFNPSLKSRISITRNTSKNQYYLQLNSVTTEDTATYYCARSHYYGYYFDYWGHGTTLTVSS VL: DIVLTQSPASLAVSLGQRATISCRASETIDSYGDSLMHWYQQKAGQPPKLLIYRASNLESGIPARFSGSGSRTDFTLTINPVEADDVATYYCQQTDEDPYTFGGGTKLEIK",213%,42.5%,108%,171%,108%,55.2%,68.1%,109%,71.2%,108%,117%
